Where no end group is shown, it is not given here.
B1: Phage-606 (peptide)
peptide: YCAGHLPEYFLKCL
notes: Clonal phage of the Peptide-87 library, tested as crude phage supernatant; not shown: pIII of the bacteriophage to which the peptide is fused
B2: Phage-612 (peptide)
peptide: YCDGHSIEYRWKCL
notes: as for B1
B3: Phage-578 (peptide)
peptide: YCEGHSPEYMEKCL
modifications: cysteine pairing not given here; also: displayed on phage by fusion to pIII, pIII and linker sequence not given here
B4: Phage-605 (peptide)
peptide: YCDGHLPEYLSKCL
notes: as for B1
B5: Phage-616 (peptide)
peptide: YCMGHLPQYMQKCL
notes: as for B1
B6: Phage-613 (peptide)
peptide: YCEGHAEEYMQKCL
notes: as for B1
B7: Phage-607 (peptide)
peptide: YCDGHSPLYIWKCL
notes: as for B1
B8: Phage-576 (peptide)
peptide: YCDGHLSEYMEKCL
modifications: cysteine pairing not given here; also: displayed on phage by fusion to pIII, pIII and linker sequence not given here
B9: Phage-614 (peptide)
peptide: YCDGHAPEYIYKCL
notes: as for B1
B10: Phage-608 (peptide)
peptide: YCDGHLPEYMHKCL
notes: as for B1
B11: Phage-611 (peptide)
peptide: YCDGHAVEYMAKCL
notes: as for B1
B12: Phage-609 (peptide)
peptide: YCDGHLPEYIEKCL
notes: as for B1
B13: Phage-577 (peptide)
peptide: YCEGHSPLYMWKCL
modifications: cysteine pairing not given here; also: displayed on phage by fusion to pIII, pIII and linker sequence not given here
B14: Phage-610 (peptide)
peptide: YCDGHLPQYKAKCL
notes: as for B1
B15: Phage-617 (peptide)
peptide: YCDGHTQEYIAKCL
notes: as for B1
B16: Phage-615 (peptide)
peptide: YCDGHLEEYKQKCL
notes: as for B1

Key:
[1] = target: Anti-CD28 Fab (SEQ ID NOs: 696, 697); assay: phage binding ELISA; captured anti-CD28 Fab pre-incubated with CD28 antigen as competitor, anti-M13 HRP
Target sequence in this assay (VH, as listed by the source, chain 1 of 2): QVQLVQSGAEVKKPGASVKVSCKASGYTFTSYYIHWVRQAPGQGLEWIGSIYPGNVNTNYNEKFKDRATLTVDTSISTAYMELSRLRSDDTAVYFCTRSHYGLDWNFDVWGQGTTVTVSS
Target sequence in this assay (VL, as listed by the source, chain 2 of 2): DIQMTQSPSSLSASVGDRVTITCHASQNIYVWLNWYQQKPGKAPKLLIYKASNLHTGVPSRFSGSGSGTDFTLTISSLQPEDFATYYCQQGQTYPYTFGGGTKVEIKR
Method: (§1) After panning, phage infected bacteria were plated out and colonies picked into 96 well blocks. Clonal phage was then amplified and separated from bacterial cells via centrifugation.
(§2) Clonal phage were harvested as crude supematants and screened via standard ELISAs. […] Prior to the addition of clonal phage, wells were incubated with blocking buffer and CD28 antigen or blocking buffer alone. Without washing or aspirating, clonal phage supematants were then added to the wells and incubated for a short time. Wells were then washed followed by detection of bound phage using a horse radish conjugated anti-M13 antibody. Clonal phage of interest were then sent for sequence analysis.

[2] = target: Anti-CD28 Fab (SEQ ID NOs: 696, 697); assay: phage binding ELISA; biotinylated anti-CD28 Fab on neutravidin plate, clonal phage supernatant, anti-M13 HRP;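 note: crude clonal phage supernatants screened after wells were preincubated either with CD28 antigen in blocking buffer or with blocking buffer only, phage added without washing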
Target sequence in this assay (VH, as listed by the source, chain 1 of 2): as the sequence (VH, as listed by the source, chain 1 of 2) above
Target sequence in this assay (VL, as listed by the source, chain 2 of 2): as the sequence (VL, as listed by the source, chain 2 of 2) above
Method: as §1, §2

[3] = target: T1, Anti-CD28 Fab (SEQ ID NOs: 696, 697); assay: phage ELISA; biotinylated anti-CD28 Fab on neutravidin plate, clonal phage supernatant, anti-M13 HRP detection;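 note: crude supernatants of single phage clones picked after panning were screened for binding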
T1 construct: In the phage ELISA the Fab was biotinylated and captured on neutravidin coated plates
T1 sequence (VH, as listed by the source, chain 1 of 2): as the sequence (VH, as listed by the source, chain 1 of 2) above
T1 sequence (VL, as listed by the source, chain 2 of 2): as the sequence (VL, as listed by the source, chain 2 of 2) above
Method: as §1, §2

[4] = target: T1, Anti-CD28 Fab (SEQ ID NOs: 696, 697); assay: phage ELISA; plate-bound anti-CD28 Fab pre-incubated with CD28 antigen as competitor, anti-M13 HRP detection
Method: as §1, §2

[5] = target: T2, Anti-CD28 Fab (SEQ ID NOs: 696, 697); assay: phage ELISA; biotinylated anti-CD28 Fab on neutravidin plate, clonal phage supernatant, anti-M13 HRP
T2 construct: In the phage ELISA the Fab was biotinylated and captured on neutravidin coated plates
T2 sequence (VH, as listed by the source, chain 1 of 2): as the sequence (VH, as listed by the source, chain 1 of 2) above
T2 sequence (VL, as listed by the source, chain 2 of 2): as the sequence (VL, as listed by the source, chain 2 of 2) above

[6] = target: T2, Anti-CD28 Fab (SEQ ID NOs: 696, 697); assay: phage ELISA; captured anti-CD28 Fab pre-incubated with CD28 antigen as competitor, anti-M13 HRP;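 note: crude clonal phage supernatants added without washing after CD28 pre-incubation, bound phage detected with HRP anti-M13 antibody, reference wells got blocking buffer lacking CD28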
[7] = target: T3, Anti-CD28 Fab (SEQ ID NOs: 696, 697); assay: phage binding ELISA; biotinylated anti-CD28 Fab on neutravidin plate, bound phage detected with anti-M13 HRP;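 note: crude supernatants of clonal phage screened, wells pretreated with blocking buffer with or without CD28 antigen before brief phage incubation, washed, then bound phage detected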
T3 construct: In the phage ELISA the Fab was biotinylated and captured on neutravidin coated plates
T3 sequence (VH, as listed by the source, chain 1 of 2): as the sequence (VH, as listed by the source, chain 1 of 2) above
T3 sequence (VL, as listed by the source, chain 2 of 2): as the sequence (VL, as listed by the source, chain 2 of 2) above
Method: as §1, §2

[8] = target: T3, Anti-CD28 Fab (SEQ ID NOs: 696, 697); assay: phage binding ELISA on captured anti-CD28 Fab; competitor: CD28 antigen
Method: as §1, §2

| Binder | Anti-CD28 Fab signal in the presence of CD28 [1] | Anti-CD28 Fab (SEQ ID NOs: 696, 697) signal [2] | Phage binding ELISA, Anti-CD28 Fab signal [3] | Phage binding ELISA, Anti-CD28 Fab signal in the presence of CD28 [4] | Anti-CD28 Fab signal (phage binding ELISA) [5] | Anti-CD28 Fab signal in the presence of CD28 (phage binding ELISA) [6] | other results |
| --- | --- | --- | --- | --- | --- | --- | --- |
| YCAGHLPEYMEKCL [Phage-579] | 0.12 | 2.24 | – | – | – | – | – |
| YCDGHAPEYMLKCL (Tested as clonal phage supernatant) [Phage-601] | – | – | 2.2 | 0.07 | – | – | – |
| YCDGHAPDYMLKCL (Tested as clonal phage supernatant) [Phage-602] | – | – | 2.2 | 0.09 | – | – | – |
| YCEGHAPEYMLKCL (Tested as clonal phage supernatant) [Phage-597] | – | – | 2.21 | 0.07 | – | – | – |
| B1 | – | – | – | – | 2.19 | 0.08 | – |
| YCEGHTVEYMAKCL (Tested as clonal phage supernatant) [Phage-599] | – | – | 2.2 | 0.08 | – | – | – |
| YCDGHLPLYLAKCL [Phage-584] | 0.09 | 2.23 | – | – | – | – | – |
| YCQGHLPEYMNKCL [Phage-581] | 0.08 | 2.24 | – | – | – | – | – |
| B2 | – | – | – | – | 2.18 | 0.06 | – |
| YCDGHMPEYIAKCL (Tested as clonal phage supernatant) [Phage-604] | – | – | 2.19 | 0.08 | – | – | – |
| B3 | – | – | – | – | – | – | Anti-CD28 Fab signal [7]: 2.24; Anti-CD28 Fab signal in the presence of CD28 [8]: 0.07 |
| YCQGHLPIYMEKCL [Phage-583] | 0.09 | 2.24 | – | – | – | – | – |
| YCDGHAPEYMEKCM (Tested as clonal phage supernatant) [Phage-598] | – | – | 2.21 | 0.07 | – | – | – |
| YCEGHSPQYMWKCL (Tested as clonal phage supernatant) [Phage-593] | – | – | 2.22 | 0.12 | – | – | – |
| YCDGHKAEYMDKCL (Tested as clonal phage supernatant) [Phage-600] | – | – | 2.2 | 0.07 | – | – | – |
| YCEGHAAEYMTKCL (Tested as clonal phage supernatant) [Phage-594] | – | – | 2.22 | 0.08 | – | – | – |
| B4 | – | – | – | – | 2.19 | 0.07 | – |
| YCEGHLPEYMQKCM [Phage-587] | 0.08 | 2.23 | – | – | – | – | – |
| B5 | – | – | – | – | 2.18 | 0.11 | – |
| B6 | – | – | – | – | 2.18 | 0.06 | – |
| YCDGHRGEYLQKCL (Tested as clonal phage supernatant) [Phage-592] | – | – | 2.22 | 0.09 | – | – | – |

| Binder | Anti-CD28 Fab signal in the presence of CD28 [1] | Anti-CD28 Fab (SEQ ID NOs: 696, 697) signal [2] | Phage binding ELISA, Anti-CD28 Fab signal [3] | Phage binding ELISA, Anti-CD28 Fab signal in the presence of CD28 [4] | Anti-CD28 Fab signal (phage binding ELISA) [5] | Anti-CD28 Fab signal in the presence of CD28 (phage binding ELISA) [6] | other results |
| --- | --- | --- | --- | --- | --- | --- | --- |
| B7 | – | – | – | – | 2.19 | 0.09 | – |
| YCDGHIEEYRAKCL (Tested as clonal phage supernatant) [Phage-596] | – | – | 2.21 | 0.07 | – | – | – |
| YCEGHLPMYMDKCL [Phage-591] | 0.07 | 2.22 | – | – | – | – | – |
| B8 | – | – | – | – | – | – | Anti-CD28 Fab signal [7]: 2.25; Anti-CD28 Fab signal in the presence of CD28 [8]: 0.08 |
| YCDGHLPQYMNKCL [Phage-585] | 0.1 | 2.23 | – | – | – | – | – |
| YCEGHLPQYMKKCL (Tested as clonal phage supernatant) [Phage-595] | – | – | 2.22 | 0.1 | – | – | – |
| B9 | – | – | – | – | 2.18 | 0.06 | – |
| B10 | – | – | – | – | 2.19 | 0.09 | – |
| YCEGHAWEYMAKCL [Phage-580] | 0.07 | 2.24 | – | – | – | – | – |
| YCDGHLPEYLPKCL (Tested as clonal phage supernatant) [Phage-603] | – | – | 2.19 | 0.09 | – | – | – |
| B11 | – | – | – | – | 2.18 | 0.1 | – |
| B12 | – | – | – | – | 2.19 | 0.07 | – |
| YCDGHSQEYMAKCL [Phage-582] | 0.08 | 2.24 | – | – | – | – | – |
| YCDGHSAEYMAKCL [Phage-588] | 0.07 | 2.23 | – | – | – | – | – |
| YCEGHSPEYMYKCL [Phage-589] | 0.1 | 2.23 | – | – | – | – | – |
| YCDGHSMEYMSKCL [Phage-590] | 0.09 | 2.22 | – | – | – | – | – |
| B13 | – | – | – | – | – | – | Anti-CD28 Fab signal [7]: 2.25; Anti-CD28 Fab signal in the presence of CD28 [8]: 0.06 |
| B14 | – | – | – | – | 2.19 | 0.09 | – |
| YCEGHAPMYMWKCL [Phage-586] | 0.08 | 2.23 | – | – | – | – | – |
| B15 | – | – | – | – | 2.17 | 0.06 | – |
| B16 | – | – | – | – | 2.18 | 0.08 | – |
